The record followed here is PMC1289080.

B1: sR47 mut C/D and C'/D' (structured_RNA)
RNA: GAUGAAGAUUCUGAGCUCGGCAGGUCCUUCGGAGUUCUGAGGAUCUUGAGUGCUUCUUCACCUU

The target in one data set is T1, L7Ae (Pyrococcus abyssi, UniProt P62008 1-123). The data set can be described thus: EMSA.
Take B1: the binding result is on record as “no binding”.

For GGGACUGACCCGUGAUGACCC (structured_RNA) [sR6 LC], the binding result is reported as “no binding”.

Turning to GGGACUGAGCAUUGAUGACCC (structured_RNA) [sR6 L2], the binding result is given as “no binding”.

Turning to GGGACUUCGCAGUUCUGACCC (structured_RNA) [sR6 mut C'/D'], the binding result is “no binding”.

In a further data set the target is T1, L7Ae. Nature of the data set: EMSA. The source holds these as a separate data set.
On to GGGACUGAGGGUGAUGACCC (structured_RNA) [sR6 2-nt spacer GG], for which the binding result is recorded as “no binding”.

Take GGGACUGACCAGUGAUGACCC (structured_RNA) [sR6 CCA spacer]: the binding result is recorded as “no binding”.
